Reference: article doi:10.1101/2021.05.19.444868

Molecular target: trimeric post-fusion hMPV B2 F protein (trypsinized) (human metapneumovirus (hMPV), subgroup B2 | T4 bacteriophage)
Test: SEC

For “trimeric post-fusion hMPV B2 F protein (trypsinized) (natural protein)”, the stoichiometry N was 3.
